Here are results for 1 protein from PMC8618960, “Functionalized Protein Nanotubes Based on the Bacteriophage vB_KleM-RaK2 Tail Sheath Protein” (Nanomaterials, 2021).

Substrate in this data set: CC(=O)Nc1ccn([C@H]2C[C@H](O)[C@@H](CO)O2)c(=O)n1
In words: purified protein. The format is biochemical, Escherichia coli. As to conditions: 10 mM Tris-HCl pH 8.0, 22 °C, free enzyme.

B1: YqfB (free wild-type YqfB, amidohydrolase YqfB) (Escherichia coli K-12) (protein)
chain: MQPNDITFFQRFQDDILAGRKTITIRDESESHFKTGDVLRVGRFEDDGYFCTIEVTATSTVTLDTLTEKHAEQENMTLTELKKVIADIYPGQTQFYVIEFKCL
notes: free wild-type YqfB
For B1, the Km result is recorded as “(4.9 ± 0.04) × 10^−4 M”, the kcat was 113 ± 1 s⁻¹ and the kcat/Km is 230000 M⁻¹ s⁻¹.
